Results: the RNAGym collection of RNA variant scans (doi:10.1093/molbev/msab373)

B1: Azoarcus group I ribozyme (parent)
chain: GUGCCUUGCGCCGGGAAACCACGCAAGGGAUGGUGUCAAAUUCGGCGAAACCUAAGCGCCCGCCCGGGCGUAUGGCAACGCCGAGCCAAGCUUCGGCGCCUGCGCCGAUGAAGGUGUAGAGACUAGACGGCACCCACCUAAGGCAAACGCUAUGGUGAAGGCAUAGUCCAGGGAGUGGCGAAAGUCACACAAACCGG

Variants of: B1
Test: reverse-splicing fitness (ratio to wild type); higher = more active; in vitro selection; Mg2+ level not given
Summary of the method: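 An in vitro group I ribozyme library with randomized positions was T7-transcribed and gel-purified. In triplicate, 10 pmol RNA in EPPS pH 7.5 was reacted with 50 pmoles of a 30-nt RNA substrate for 1 h at 37 °C across several added MgCl2 levels (1–48 mM), then stopped with EDTA. Products were reverse transcribed from a substrate-complementary primer, PCR-amplified and sequenced (HiSeq 4000). Fitness is a variant's read proportion after selection over that before, normalised to wild type.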

Row | Variant | reverse-splicing fitness
1 | C82G A111C A145C C150U C169G U176C | 0.0189
2 | C82G A111C A145C C150U C169G U176G | 0.00873
3 | C82G A111G A120C A145C C150A U176G | 0.00662
4 | C82G A111G A120C A145C C150A U176A | 0.0112
5 | C82G A111G A120C A145C C150A U176C | 0.0111
6 | C82G A111C C150U C169U U176A | 0.015
7 | C82G A111C C150U C169U U176C | 0.0142
8 | C82G A111C C150U C169U U176G | 0.00854
9 | C82G A111C A145U C169A U176G | 0.00775
10 | C82G A111C A145U C169A U176A | 0.0149
11 | C82G A111C A145U C169A U176C | 0.0153
12 | C82G A111G | 0.411
13 | C82G A111C A145U C150G U176G | 0.0052
14 | C82G A111C A145U C150G U176C | 0.0214
15 | C82G A111C A145U C150G U176A | 0.0124
16 | C82G A111C C150U C169U | 0.0125
17 | C82G A111C C150U C169G | 0.00815
18 | C82G A111C C150U C169A | 0.0113
19 | C82G A111C A145G U176A | 0.129
20 | C82G A111C A145G U176C | 0.147
21 | C82G A111C A145G U176G | 0.0463

Row | Variant | reverse-splicing fitness
22 | C82G A111C A145G C150A | 0.0364
23 | C82G A111C A145G C150U | 0.205
24 | C82G A111C A145G C150G | 0.0266
25 | C82G A111C A120U C150A C169G U176G | 0.0024
26 | C82G A111C A145C C169G | 0.00898
27 | C82G A111C A145C C169U | 0.0125
28 | C82G A111C A145C C169A | 0.00847
29 | C82G A111C A145U C150G C169G | 0.0063
30 | C82G A111C A145U C150G C169A | 0.00796
31 | C82G A111C A145U C150G C169U | 0.00891
32 | C82G A111C A145U C150U C169G | 0.00905
33 | C82G A111C A145U C150U C169U | 0.0121
34 | C82G A111C A145U C150U C169A | 0.00854
35 | C82G A111C A120U C150U C169A | 0.00635
36 | C82G A111C A120U C150U C169U | 0.00568
37 | C82G A111C A120U C150U C169G | 0.00542
38 | C82G A111C C150G C169A U176C | 0.0108
39 | C82G A111C C150G C169A U176A | 0.00955
40 | C82G A111C C150G C169A U176G | 0.00647
41 | C82G A111C A120U C150U | 0.0243
42 | C82G A111C A120U C150G | 0.00766

Row | Variant | reverse-splicing fitness
43 | C82G A111C A145U C150U U176C | 0.0883
44 | C82G A111C A145U C150U U176G | 0.0297
45 | C82G A111C A145U C150U U176A | 0.0841
46 | C82G A111G A120C A145C C150A C169U | 0.00986
47 | C82G A111G A120C A145C C150A C169G | 0.00899
48 | C82G A111G A120C A145C C150A C169A | 0.00953
49 | C82G A111C A145G C150G C169G U176G | 0.00603
50 | C82G A111C A145G C150G C169G U176A | 0.00869
51 | C82G A111C A145G C150G C169G U176C | 0.0117
52 | C82G A111C A145U C169U U176G | 0.00693
53 | C82G A111C A145U C169U U176A | 0.0168
54 | C82G A111C A145U C169U U176C | 0.0153
55 | C82G A111C C150A | 0.0254
56 | C82G A111C C150U | 0.143
57 | C82G A111C C150G | 0.0174
58 | C82G A111C C150U C169A U176A | 0.0125
59 | C82G A111C C150U C169A U176C | 0.0143
60 | C82G A111C C150U C169A U176G | 0.00817
61 | C82G A111C A145C C150G C169A U176A | 0.00825
62 | C82G A111C A145C C150G C169A U176G | 0.00732
63 | C82G A111C A145C C150G C169A U176C | 0.00828

Row | Variant | reverse-splicing fitness
64 | C82G A111C A145U C150A C169G U176G | 0.0081
65 | C82G A111C A145U C150A C169G U176A | 0.0157
66 | C82G A111C A145U C150A C169G U176C | 0.0181
67 | C82G A111C A120U C150U C169G U176A | 0.00503
68 | C82G A111C A120U C150U C169G U176G | 0.00259
69 | C82G A111C A120U C150U C169G U176C | 0.00301
70 | C82G A111C C150A C169U U176G | 0.0093
71 | C82G A111C C150A C169U U176A | 0.0193
72 | C82G A111C C150A C169U U176C | 0.0178
73 | C82G A111C A145G C150A C169U | 0.00998
74 | C82G A111C A145G C150A C169G | 0.00789
75 | C82G A111C A145G C150A C169A | 0.00903
76 | C82G A111C A120U C150G U176C | 0.00675
77 | C82G A111C A120U C150G U176G | 0.00279
78 | C82G A111C A120U C150G U176A | 0.00422
79 | C82G A111C C150G C169G U176A | 0.00734
80 | C82G A111C C150G C169G U176G | 0.00603
81 | C82G A111C C150G C169G U176C | 0.00598
82 | C82G A111C U176G | 0.0517
83 | C82G A111C U176C | 0.139
84 | C82G A111C U176A | 0.133
